From publication PMC6491548, “A novel multidomain acyl-CoA carboxylase in Saccharopolyspora erythraea provides malonyl-CoA for de novo fatty acid biosynthesis” (Scientific Reports, 2019) come the findings set out here.

Substrate in data set [1]: CC(=O)SCCNC(=O)CCNC(=O)[C@H](O)C(C)(C)COP(=O)(O)OP(=O)(O)OC[C@H]1O[C@@H](n2cnc3c(N)ncnc32)[C@H](O)[C@@H]1OP(=O)(O)O
As to the kind of experiment: purified protein. It counts as biochemical, Saccharopolyspora erythraea. The settings on record: 3 mM ATP, 5 mM MgCl2, 50 mM NaH14CO3, 100 mM Hepes pH 7.5, 30 °C.

Substrate in data set [2]: CCC(=O)SCCNC(=O)CCNC(=O)[C@H](O)C(C)(C)COP(=O)(O)OP(=O)(O)OC[C@H]1O[C@@H](n2cnc3c(N)ncnc32)[C@H](O)[C@@H]1OP(=O)(O)O
Kind of data set: purified protein. The class given is biochemical, Saccharopolyspora erythraea. The settings on record: 3 mM ATP, 5 mM MgCl2, 50 mM NaH14CO3, 100 mM Hepes pH 7.5, 30 °C.

Data set [3] deals with the molecule itself. Kind of data set: SEC; Superdex 200 10/300 GL in 50 mM Hepes pH 7.5, 150 mM NaCl, 20% glycerol; calibrated with molecular mass standards; two peaks, dimer (404 kDa) and monomer (186.9 kDa). On the technique in general: Size exclusion chromatography separates by hydrodynamic size, large species first.

B1: SACE_4237 (Saccharopolyspora erythraea NRRL 2338) (protein)
chain: MFSRVAIVNRGEAAMRLVHAVRELAAETGERIETVALHTDVDRTATFVREADLRYDLGPASARPYLDLGVLERALVESGADAAWVGWGFVAEDPAFAELCEKIGVTFIGPSAEAMRRLGDKIGAKLLAEEVGVPVAPWSRGEVSDLDGARRAADEIGYPLMLKATAGGGGRGIRVINSEQELTEAYERTRMEAERAFGNGAVFLERLVTGARHVEVQVIADGQGTAWALGVRDCSVQRRNQKIIEESASPVLTAEQSRELKAAAERLARAVEYRGAGTVEFLYHPGEELFAFLEVNTRLQVEHPITEATTGVDLVKAQLHVASGGRLEGEPPAELGHAVEARLNAEDPDRDFAPSPGRIVRLSLPAGPGIRVDTGVSEGDTIPADFDSMIAKIIAYGSDREQALGRLRRAMAQTTVIVAGGATNKSFVLDLLNRDEVVDGSADTGWIDRERAAGGLRSHQHSAIALAAAAVEAYEDAELAARQQFLSTAHGGRPQVRHETGRPLELKLRDESYRVLVARVGHQRYRIGIDTGSQQHTADVEIERFDSHTGQITVNGQRFRLVTDTHGPVHLVEVDGVTHRVSQDEGGVLRSPAPALVVATPVEIGEEVEAGAPVLVLESMKMETVLRAPFRARLRERMVAAGSQIETGAPLLRLEPVGDQEAAEEAEAATPVELALPVAPSARDAHERAARGLQDLRSVLLGFDVDPHDEQRVLDDYLAARAELVAAGQRPLDGEIELLQVFADLSELSRNRPAGEEAKADTRVHSPREYFHTYLQSLDVERAGLSETFQQRLLRVLGHYGVEGADRTPELEEAVFRIFLAQQRAASDAAVVTTLLGHWLTEVPPPGETRTAAGLVLEHLVAATQLRFPVVCDLARTVVFHWFAQPMLRRNRAEVYSVVRGHLRHLDAHPDAHDRAERIAEMVGTAEPLVRLLGQRIGREGTDPAPLLEVLTRRYYGNRALDGVRTTRVAGSTAVVAEYQDEHPRVVATAVDFAALPEAVRAIGELAADGDLVADIYLTWADQPEDSDAMAAELGEVLGAQGLPGQVGRITTTVAGRSGAVMHHHFTFEPASEGVAEQRLIRGLHPLIAERLQLRRWRDFDLTRLPSADEEVYLFRSVARENPSDERFVAMAQVRDLTPLRDDEGRLVALPAAEGVLTGCLDAIRKVQARVPARQRSSTNRIVIYVWPPVELTSEELRALGRRVLPTTAGAGLEEVLFLGRRRDRETGELREVAVRVGYEAGSEPRMSVGEPPTERIEPLNSYRQKVLRAAKRGTVYPYELTGMLAGGQGTFVEHDLDADGVLVPVDRPKGQNSAAIVAGVVTTPTERHPEGVTRVVLLGDPTKSLGALSEPECSRVIAALDLAERMRVPLEWFALSAGARISMDSGTENMDWVAAALKRIVHFTQDGGEINVVVAGINVGAQPYWNAEATMLMHTKGILVMTPDSAMVLTGKQSLDFSGGVSADDNFGIGGYDRVMGPNGQAQYWAPNLAAAREVLMSHYDHTYVVPGEEAPRQAATTDPRDRDICDYPHEFAGSDFTTVGEIFSATANPDRKKSFDIRTVMRALADQDHPVLERWAGMADADTAAVQDVHLGGHPVCLLGIESRPVPRHGFPPTDGPDTYTAGTLFPRSSKKAARAINAASGNRPLVVLANLSGFDGSPESMRKLQLEYGAEIGRAIVNFRGPIVFCVISRYHGGAFVVFSKALNPNMTVLAVEGSYASVIGGAPAAAVVFSGEVNDRTAKDQRVRDLEARLAEAGDADRTALTLELAETRRAVHAEKLGEVAAEFDRVHSVQRAVEVGSVDAIVRADELRPQIIEAIEKGMLPQ
notes: full-length gene, N-terminal His6 tag, E. coli BL21λ(DE3) with pCY216 (biotin ligase)
As to B1, in data set [1], the Km (as a rule, the substrate concentration at which the rate is half of its maximum) was determined as 168 ± 1 µM; the Vmax – broadly, the top rate of the reaction or transport when substrate is in excess – came to 0.00043 µmol/min; the turnover number (kcat) (as a rule, the number of substrate molecules converted per active site and unit of time at saturation) amounted to 0.143 ± 0.004 s⁻¹; the kcat/Km (as a rule, the second-order rate constant that governs catalysis at low substrate concentration) was determined as 850 ± 30 M⁻¹ s⁻¹. Further, in data set [2], the Michaelis-Menten constant (Km) stood at 98 ± 1 µM, the Vmax is 0.00016 µmol/min, the kcat is 0.052 ± 0.002 s⁻¹ and the catalytic efficiency (kcat/Km) amounted to 520 ± 40 M⁻¹ s⁻¹.

B2: SACE_4237 multidomain acyl-CoA carboxylase (enzyme, Saccharopolyspora erythraea, UniProt A4FHI1 1-1827, looked up)
chain: B1 chain
modifications: biotinylated (co-expressed biotin ligase from pCY216 to improve biotinylation; residue not stated)
notes: SACE_4237, multidomain acyl-CoA carboxylase (BC, BCCP, central region, CT) of Saccharopolyspora erythraea NRRL23338, about 200 kDa; gene amplified from chromosomal DNA with an NdeI site at the translational start codon and a SpeI site downstream of the stop codon; Eluted from size exclusion as a dimer (peak 1, 404 kDa) and a monomer (peak 2, 186.9 kDa); The row is of the protomer with itself; …
For B2, in data set [3], the stoichiometry N (in general, the number of molecules, sites or subunits per partner or assembly) was found to be 2.
